According to patent US5434135A, “Growth factor compositions, preparation and use” (Parikh; Indu, priority 1993, dated 1995):

What was measured:
[1] = tested on: trypsin; details: 3% trypsin, after one hour
[2] = tested on: trypsin; assay: in vitro; details: 1% trypsin
[3] = at one hour
Protocol: At the indicated times aliquots were withdrawn and the amount of intact parent peptide was determined as the area under the curve (AUC) of the A214 (absorbance at 214 nanometers) chromatogram;

CC[C@H](C)[C@@H]1NC(=O)[C@H](Cc2ccc(O)cc2)NC(=O)CNC(=O)[C@H](C(C)C)NC(=O)[C@H](C(C)C)NC(=O)[C@@H](NC(=O)[C@H](CC(N)=O)NC(=O)[C@@H]2CSSC[C@@H]3NC(=O)[C@H](Cc4ccc(O)cc4)NC(=O)CNC(=O)[C@H](CC(=O)O)NC(=O)[C@H](Cc4c[nH]cn4)NC(=O)[C@H](CO)NC(=O)[C@H](CC(C)C)NC(=O)[C@@H]4CCCN4C(=O)[C@@H](NC(=O)[C@H](CCC(=O)O)NC(=O)[C@H](CO)NC(=O)[C@H](CC(=O)O)NC(=O)[C@H](CO)NC(=O)[C@@H](N)CC(N)=O)CSSC[C@H](NC(=O)[C@H](C(C)C)NC(=O)CNC(=O)[C@H](CC(=O)O)NC(=O)[C@H](Cc4c[nH]cn4)NC(=O)[C@H](CC(C)C)NC3=O)C(=O)N[C@@H](CCSC)C(=O)N[C@@H](Cc3ccc(O)cc3)C(=O)N[C@@H]([C@@H](C)CC)C(=O)N[C@@H](CCC(=O)O)C(=O)N[C@@H](C)C(=O)N[C@@H](CC(C)C)C(=O)N[C@@H](CC(=O)O)C(=O)N[C@@H](CCCCN)C(=O)N[C@@H](Cc3ccc(O)cc3)C(=O)N[C@@H](C)C(=O)N2)CSSC[C@@H](C(=O)N[C@@H](CCC(N)=O)C(=O)N[C@@H](Cc2ccc(O)cc2)C(=O)N[C@@H](CCCNC(=N)N)C(=O)N[C@@H](CC(=O)O)C(=O)N[C@@H](CC(C)C)C(=O)N[C@@H](CCCCN)C(=O)N[C@@H](Cc2c[nH]c3ccccc23)C(=O)N[C@@H](Cc2c[nH]c3ccccc23)C(=O)N[C@@H](CCC(=O)O)C(=O)N[C@@H](CC(C)C)C(=O)N[C@@H](CCCNC(=N)N)C(=O)O)NC(=O)[C@H](CCCNC(=N)N)NC(=O)[C@H](CCC(=O)O)NC(=O)CNC1=O [hEGF1-53]
degradation in trypsin [1]: 90-100%
metabolised at 1 h [2]: ~50%
degradation in gastric fluid [3]: approaching almost complete degradation
